In article PMC6757106, “Prokaryotic soluble overexpression and purification of oncostatin M using a fusion approach and genetically engineered E. coli strains” (Scientific Reports, 2019):

How the values were obtained:
[1] = biological target: the molecule itself; experiment: non-reducing SDS-PAGE; final purified tag-free OSM run on 10% tricine SDS-PAGE under reducing and non-reducing conditions, Coomassie stained
[2] = biological target: the molecule itself; experiment: SEC; HiLoad 16/600 Superdex 75 pg, 1x PBS pH 7.4, 1 mL/min; final proteins after tag cleavage

Protein | binding result [1] | binding result [2]
Human Oncostatin M (OSM), tag-free, purified from the MBP-OSM fusion expressed in BL21(DE3) (ligand, UniProt P13725 26-221, looked up, Oncostatin M, human; Tag removed with TEV protease at ENLYFQ/G; surmised); Printed size 22.05 kDa; also called MBP fusion-derived OSM; OSM purified from MBP-OSM; source: E. coli BL21(DE3), 18 °C, purified (IMAC, TEV protease cleavage, second IMAC); not shown: His6, N-terminal, cleaved; MBP, N-terminal, cleaved) AAIGSCSKEYRVLLGQLQKQTDLMQDTSRLLDPYIRIQGLDVPKLREHCRERPGAFPSEETLRGLGRRGFLQTLNATLGCVLHRLADLEQRLPKAQDLERSGLNIEDLEKLQMARPNILGLRNNIYCMAQLLDNSDTAEPTKAGRGASQPPTPTPASDAFQRKLEGCRFLHGYHRFMHSVGRVFSKWGESPNRSRR | binds | –
Human Oncostatin M (OSM), tag-free, purified from the His6-OSM fusion expressed in Origami 2 (ligand, UniProt P13725 26-221, looked up, Oncostatin M, human; Tag removed with TEV protease at ENLYFQ/G; a glycine probably stays at the N-terminus (surmised from the cysteine numbering); Printed size 22.05 kDa; also called His6 fusion-derived OSM; OSM purified from His-OSM; source: E. coli Origami 2(DE3), 18 °C, purified (IMAC with 2 M urea, TEV protease cleavage, second IMAC); not shown: His6, N-terminal, cleaved) AAIGSCSKEYRVLLGQLQKQTDLMQDTSRLLDPYIRIQGLDVPKLREHCRERPGAFPSEETLRGLGRRGFLQTLNATLGCVLHRLADLEQRLPKAQDLERSGLNIEDLEKLQMARPNILGLRNNIYCMAQLLDNSDTAEPTKAGRGASQPPTPTPASDAFQRKLEGCRFLHGYHRFMHSVGRVFSKWGESPNRSRR | – | binds
